T1: TM4SF5 (Homo sapiens, UniProt O14894)
T1 sequence (O14894 1-197): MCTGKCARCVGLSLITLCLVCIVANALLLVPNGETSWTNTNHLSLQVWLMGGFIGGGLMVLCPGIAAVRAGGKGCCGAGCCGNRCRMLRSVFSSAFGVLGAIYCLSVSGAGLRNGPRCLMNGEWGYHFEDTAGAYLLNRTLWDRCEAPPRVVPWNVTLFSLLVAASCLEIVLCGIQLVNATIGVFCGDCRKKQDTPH

T2: hTM4SF5EC2-C cyclic peptide (Homo sapiens, UniProt O14894, G133C/V156C)
T2 construct: purchased Peptron, Co., Ltd; host or cells: chemical synthesis
T2 sequence (O14894 131-157 G133C/V156C): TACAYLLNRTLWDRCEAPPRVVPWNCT

T3: Myc-tagged recombinant TM4SF5 protein (Homo sapiens, UniProt O14894)
T3 construct: expressed in transfected cells
T3 sequence (O14894 1-197): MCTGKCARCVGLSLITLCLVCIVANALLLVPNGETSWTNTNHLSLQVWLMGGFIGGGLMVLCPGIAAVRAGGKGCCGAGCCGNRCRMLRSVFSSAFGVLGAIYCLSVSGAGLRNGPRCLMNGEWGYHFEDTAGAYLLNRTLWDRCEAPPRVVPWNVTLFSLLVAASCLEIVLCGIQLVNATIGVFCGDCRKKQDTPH

T4: hTM4SF5EC2-C cyclic peptide (Homo sapiens, UniProt O14894, G133C)
T4 construct: purchased Peptron, Co., Ltd; host or cells: chemical synthesis
T4 sequence (O14894 with tags, fused parts or gaps G133C): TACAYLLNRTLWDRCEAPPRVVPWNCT


What was measured:
[1] = target: T1, TM4SF5; settings: in vitro and in vivo; cited from earlier work
[2] = target: T2, hTM4SF5EC2-C cyclic peptide; assay: ELISA binding of monoclonal antibody to cyclic peptide
Protocol: Mice were sacrificed before and 10 days after each administration to obtain serum. To determine the total IgG titer and amount, a 96-well immunoplate (Nalgen Nunc International) was coated with 5 μg/ml hTM4SF5EC2-C cyclic peptide and blocked with 0.05% PBST containing 1% BSA for two hours. After removal of blocking solution, 100 μl of the culture supernatant was added and incubated for 2 hours at room temperature, then washed with PBST and incubated for 2 hours with the detection antibody such as horseradish peroxidase (HRP)-bound an anti-IgG antibody. Colorimetric assays were developed with TMB substrate solutions and absorbance was measured at 450 nm using a Spectra Max 250 microplate reader.

[3] = target: T3, Myc-tagged recombinant TM4SF5 protein; assay: Western blot and immunoprecipitation on TM4SF5-overexpressing HEK 293F cells; format: binding; settings: HEK 293F cells overexpressing TM4SF5 vs HEK 293F control
Protocol: Human TM4SF5 cDNA was amplified by RT-PCR from Huh-7 mRNA using the following primer set: hTM4SF5 5′ primer, 5′-[…]-3′ (SEQ ID NO: 24), hTM4SF5 3′ primer, 5′-[…]-3′ (SEQ ID NO: 25). The cDNA fragment was cloned into the expression vector pcDNA-3.1/Myc-His(−)B (Invitrogen). HEK 293F cells (1×10^6 cells/ml) were transfected with 2.5 μg/ml hTM4SF5/pcDNA and 7.5 μg/ml polyethylenimine (PEI, Polysciences) for the production of stable cell lines expressing hTM4SF5, and the transfected cells were collected using 500 μg/ml G418 (Calbiochem) for 14 days. Expression of Myc-tagged hTM4SF5 was confirmed by Western blot analysis using anti-Myc-tag antibodies.
In order to analyze the specificity of anti-TM4SF5 monoclonal antibody and humanized anti-TM4SF5 antibody, TM4SF5-overexpressed cell lysates were separated on SDS-PAGE, and Western blot and immunoprecipitation assays were performed as described on Kwon S, Kim D, Rhee J W, Park J A, Kim D W, Kim D S, Lee Y, Kwon H J. BMC Biol. 2010; 8:23. In order to identify the expression of E-cadherin and β-catenin in humanized anti-TM4SF5 antibody-treated cells, cell lysates were analyzed with SDS-PAGE and Western blotting method as descried in Kwon S, Choi K C, Kim Y E, Ha Y W, Kim D, Park B K, Wu G, Kim D S, Lee Y, Kwon H J. Cancer Res. 2014; 74(14):3844-3856.

[4] = test system: HT-29 cells; format: in vivo, BALB/cAnNCri-nu/nu mice; settings: 25 mg/kg tail vein twice a week; compared to PBS control
Protocol: Mouse tumor models were established by implanting HT-29 cells into BALB/cAnNCri-nu/nu mice. PBS or anti-TM4SF5 monoclonal antibody was injected into the mice when the tumor size reaches 5 mm in diameter and the tumor growth was monitored for 31 days (n=6 each). (A) Experimental schedule. (B) Macroscopic appearance of colon cancer tissue. (C) Tumor volume (width^2×length/2). (D) Tumor weight. (E) Weight.
Twelve BALB/cAnNCri-nu/nu mice were subcutaneously injected with 5×10^6 HT-29 cells containing 50% matrigel (BD biosciences) on the dorsal right flank. When the tumor diameter reached 5 mm, the mice were randomly sorted into two treatment groups (6 mice/each group) of PBS and anti-TM4SF5 monoclonal antibody (mEC2-C). Antibodies (25 mg/kg) were injected into the tail vein twice a week. During 30 days after injecting the cancer cell, the tumor diameter was measured per 3 or 4 day-interval, and the tumor volume was calculated according to an equation Width^2×length/2. When the tumor size is reached ±600 mm^3, BACB/cAnNCri-NCri-nu/nu mice were sacrificed, and the tumor weight was measured.

[5] = target: T4, hTM4SF5EC2-C cyclic peptide; assay: SPR (surface plasmon resonance) analysis; format: binding; settings: 25° C.
Protocol: FIG. 6 represents purification and characterization of mouse anti-TM4SF5 monoclonal antibodies recognizing TM4SF5 cyclic peptides. (A) Hydrops abdominis was producted from BALB/c mice by injecting i.p. into the abdominal cavity with hybridoma clone (2A10 clone) derived from FIG. 5. Anti-TM4SF5 monoclonal antibody was purified using protein-A agarose column chromatography and the purified antibody was identified by SDS-PAGE and Coomassie blue staining. (B) The isotype was determined by obtaining titration curves using purified monoclonal antibodies. (C) A binding affinity of monoclonal antibody for cyclic peptide hTM4SF5EC2-C was determined by using ELISA. (D) A binding affinity of monoclonal antibody for cyclic peptide […] was determined by using Reichert Analytical Instruments SPR 7500DC (Reichert). […] (E) HEK 293F-EV (empty vector) and proteins from HEK 293F-TM4SF5 cells were separated by SDS-PAGE and analyzed by Western Blot using anti-TM4SF5 monoclonal antibody (mEC2-C), anti-Myc antibody or anti-β-actin antibody. HEK 293F-EV and proteins of HEK 293F-TM4SF5 cell were immunoprecipitated with mEC2-C and analyzed by Western blot using anti-Myc antibody. […]
The affinities of anti-hTM4SF5 monoclonal antibody (mEC2-C) and humanized anti-TM4SF5 antibody (hEC2-C-2) binding to hTM4SF5EC2-C cyclic peptide were measured at 25° C. using the Reichert SPR system. […]

| Molecule | HCC growth and metastasis [1] | binding to cyclic peptide hTM4SF5EC2-C by ELISA [2] | recognition of TM4SF5 protein by Western blot and immunoprecipitation [3] | progression of colon cancer (tumor volume and weight) [4] | off rate (kd) [5] |
| --- | --- | --- | --- | --- | --- |
| Cc1ccc(S(=O)(=O)Nc2ccc(C(=O)/C=C/c3ccc(O)cc3)cc2)cc1 [TSAHC, 4′-(p-toluenesulfonyl-amido)-4-hydroxychalcone] | inhibited HCC growth and metastasis in vitro and in vivo |  |  |  |  |
| mEC2-C: mouse IgG3 anti-TM4SF5 monoclonal antibody from hybridoma clone 2A10, recognizing hTM4SF5EC2-C cyclic peptide (antibody, V domains shown) VH: QVQLEESGPGLVAPSQSLSIICTVSGFSLTSYGVTWVRQPPGKGLEWLGVIWSDGSTNYQSALISRLTISRDNSKSQAFLKLNSLQTDDTATYYCARPSNYYYFDYWGQGTTLTVSS VL: DIVMTQSPSSLAVSAGERVTLSCKSSQSLFDRRTRKTYLAWYQQKPGQSPKLLISWASTRESGVPDRFTGSGSGTDFTLTISSVQAEDLAVYYCKQSYNLFTFGGGTKLEIK |  | specific binding | recognize Myc-tagged recombinant TM4SF5 protein | attenuated progression of colon cancer | 10^−5 /sec |
